Reference: patent US10556944B2, “Fab region-binding peptide” (priority 2013, dated 2020)
Where no end group is shown, it is not given here.

Molecular target: T1, anti-TNFα antibody-Fab (IgG-Fab derived from anti-TNFα monoclonal antibody, adalimumab) (Homo sapiens, UniProt P01834+P01857)
T1 construct: cleaving a humanized monoclonal IgG formulation as a starting material into a Fab fragment and an Fc fragment by papain; purchased
Experiment: Biacore 3000 surface plasmon resonance, affinity of SpG-β1 mutants for immobilized IgG-Fab
Type: binding

[1] = Table 3, Example 4, GST-cleaved type (Pep-), constructs Pep.1d, Pep.1dC, Pep.2dC
[2] = Table 3, Example 4, fold of wild-type KA of the same construct type
[3] = Table 2, Example 3, GST-fused one-domain peptide
[4] = Table 2, Example 3, GST-fused one-domain peptide, 25° C., pH 7.4
[5] = Table 2, Example 3, fold of wild-type KA, GST-fused one-domain peptide

Work on “Pep.2dC K13T/E19I/V21D/T25M/F30L/Y33F/N35F/D47A (TTYKLILNGKTLTGETTTIADDAAMAEKVLKQFAFDNGVDGEWTYDAATKTFTVTE)” yielded a KA [1] of 9.68e+06 M⁻¹, a koff [1] of 0.0058 s⁻¹ and a kon [1] of 55700 s/M. For the same substance, the “KA Vs. Wild” value [2] was 29.
“K13T/D22N/A23T/T25S/F30L/A48T: GST-fused one-domain SpG-β1 mutant, amino acid SEQ ID NO: 73 (TTYKLILNGKTLTGETTTEAVNTASAEKVLKQYANDNGVDGEWTYDDTTKTFTVTE; also: GST-fused)” was tested, and the KA [3] was 1.06e+06 M⁻¹, the koff [4] was 0.0098 s⁻¹ and the kon [4] was 104000 s/M. For the same substance, the “KA Vs. Wild” value [5] was 2.8.
For “K13T/E19I/E27D/F30L/K31R: GST-fused one-domain SpG-β1 mutant, amino acid SEQ ID NO: 35 (TTYKLILNGKTLTGETTTIAVDAATADKVLRQYANDNGVDGEWTYDDATKTFTVTE; also: GST-fused)”, the KA [3] was 2.74e+06 M⁻¹, the kon [4] was 150000 s/M and the “KA Vs. Wild” value [5] was 7.3.
In the case of “K13T/E19I/K28N/F30L/Y33F: GST-fused one-domain SpG-β1 mutant, amino acid SEQ ID NO: 53 (TTYKLILNGKTLTGETTTIAVDAATAENVLKQFANDNGVDGEWTYDDATKTFTVTE; also: GST-fused)”, the KA [3] is reported as 1.44e+06 M⁻¹, the koff [4] is reported as 0.0061 s⁻¹ and the kon [4] is reported as 88000 s/M. For the same substance, the “KA Vs. Wild” value [5] was 3.9.
Work on “K13T/E19I/K28N/E42K: GST-fused one-domain SpG-β1 mutant, amino acid SEQ ID NO: 39 (TTYKLILNGKTLTGETTTIAVDAATAENVFKQYANDNGVDGKWTYDDATKTFTVTE; also: GST-fused)” yielded a KA [3] of 1.1e+06 M⁻¹, a koff [4] of 0.0124 s⁻¹ and a kon [4] of 137000 s/M. For the same substance, the “KA Vs. Wild” value [5] was 3.0.
Work on “Pep.2dC K13T/T18A/E19I/V21A/K28I/F30L/Y33F/V39I (TTYKLILNGKTLTGETTAIAADAATAEIVLKQFANDNGIDGEWTYDDATKTFTVTE)” yielded a KA [1] of 1.02e+07 M⁻¹, a koff [1] of 0.0062 s⁻¹ and a kon [1] of 63900 s/M. The “KA Vs. Wild” value [2] was 30.
With “K13T/E19I/F30L/D47N: GST-fused one-domain SpG-β1 mutant, amino acid SEQ ID NO: 43 (TTYKLILNGKTLTGETTTIAVDAATAEKVLKQYANDNGVDGEWTYDNATKTFTVTE; also: GST-fused)” the KA [3] was 1.27e+06 M⁻¹, the koff [4] was 0.0073 s⁻¹ and the kon [4] was 92600 s/M. The “KA Vs. Wild” value [5] was 3.4.
With “K13T/E15Q/E19V/F30L/V39L: GST-fused one-domain SpG-β1 mutant, amino acid SEQ ID NO: 61 (TTYKLILNGKTLTGQTTTVAVDAATAEKVLKQYANDNGLDGEWTYDDATKTFTVTE; also: GST-fused)” the KA [3] was 1.42e+06 M⁻¹, the koff [4] was 0.0063 s⁻¹ and the kon [4] was 89800 s/M. For the same substance, the “KA Vs. Wild” value [5] was 3.8.
“K13T/T18A/E19V/F30L/Y33F: GST-fused one-domain SpG-β1 mutant, amino acid SEQ ID NO: 67 (TTYKLILNGKTLTGETTAVAVDAATAEKVLKQFANDNGVDGEWTYDDATKTFTVTE; also: GST-fused)” showed a KA [3] of 2.85e+06 M⁻¹, a koff [4] of 0.0033 s⁻¹ and a kon [4] of 93600 s/M. The “KA Vs. Wild” value [5] was 7.6.
Substance “Pep.2dC K10R/K13T/T18A/E19I/V21D/T25M/F30L/Y33F/N35F/D47A: SpG-β1 mutant, SEQ ID NO: 87, GST-cleaved two domain type with Cys at the C-terminus” has a KA [1] of 8.56e+07 M⁻¹, a koff [1] of 0.0014 s⁻¹ and a kon [1] of 117000 s/M. The “KA Vs. Wild” value [2] was 253 and the “KA Vs. Wild” value (Table 3, Example 4, fold of wild-type KA of the same construct type, listed as Pep-SpGβ1-K10R/K13T/T18A/E19I/V21D/T25M/F30L/Y33F/N35F/D47A.2dC) was ≥ 200.
Substance “K10R/K13T/E15Q/K28R/F30L/D36G/E42V: GST-fused one-domain SpG-β1 mutant, amino acid SEQ ID NO: 69 (TTYKLILNGRTLTGQTTTEAVDAATAERVLKQYANGNGVDGVWTYDDATKTFTVTE; also: GST-fused, end not given here)” has a KA [3] of 3.3e+06 M⁻¹, a koff [4] of 0.0035 s⁻¹ and a kon [4] of 115000 s/M. For the same substance, the “KA Vs. Wild” value [5] was 8.8.
In the case of “K13T/V21I/A23T/F30L/E42L: GST-fused one-domain SpG-β1 mutant, amino acid SEQ ID NO: 25 (TTYKLILNGKTLTGETTTEAIDTATAEKVLKQYANDNGVDGLWTYDDATKTFTVTE; also: GST-fused)”, the KA [3] is reported as 1.44e+06 M⁻¹, the kon [4] is reported as 85000 s/M and the “KA Vs. Wild” value [5] is reported as 3.9.
“K13T/E19I/K28I/F30L/Y33F/E42Q/D47Y: GST-fused one-domain SpG-β1 mutant, amino acid SEQ ID NO: 59 (TTYKLILNGKTLTGETTTIAVDAATAEIVLKQFANDNGVDGQWTYDYATKTFTVTE; also: GST-fused)” gave a KA [3] of 1.45e+06 M⁻¹, a koff [4] of 0.0063 s⁻¹ and a kon [4] of 91000 s/M. For the same substance, the “KA Vs. Wild” value [5] was 3.9.
“Pep.1dC K13T/T18A/E19I/V21A/K28I/F30L/Y33F/V39I: SpG-β1 mutant, SEQ ID NO: 85, GST-cleaved one domain type with Cys at the C-terminus (TTYKLILNGKTLTGETTAIAADAATAEIVLKQFANDNGIDGEWTYDDATKTFTVTE; C-terminal Cys; SpG mutant)” showed a KA [1] of 9.11e+06 M⁻¹, a koff [1] of 0.0097 s⁻¹ and a kon [1] of 88300 s/M. The “KA Vs. Wild” value [2] was 51.
Work on “K13T/E19I/Y33F/N35Y/V39L: GST-fused one-domain SpG-β1 mutant, amino acid SEQ ID NO: 41 (TTYKLILNGKTLTGETTTIAVDAATAEKVFKQFAYDNGLDGEWTYDDATKTFTVTE; also: GST-fused)” yielded a KA [3] of 1.87e+06 M⁻¹, a koff [4] of 0.0049 s⁻¹ and a kon [4] of 90500 s/M. The “KA Vs. Wild” value [5] was 5.0.
“Pep.1d K13T/E19I/V21D/T25M/F30L/Y33F/N35F/D47A (TTYKLILNGKTLTGETTTIADDAAMAEKVLKQFAFDNGVDGEWTYDAATKTFTVTE)” was tested, and the KA [1] was 4.24e+06 M⁻¹, the koff [1] was 0.0257 s⁻¹ and the kon [1] was 109000 s/M. The “KA Vs. Wild” value [2] was 29, the “KA Vs. Wild” value (Table 3, Example 4, fold of wild-type KA of the same construct type, listed as Pep-SpGβ1-K13T/E19I/V21D/T25M/F30L/Y33F/N35F/D47A.1d) was ~30 and the “affinity / binding ability for the IgG-Fab compared with the wild-type (in words)” value (Tables 1 and 3, FIGS. 2 and 3) was “significantly higher affinity for the IgG-Fab than Pep-SpGβ1-Wild.1d”.
“K13T/E19I/A23T/F30L/Y33F/D47N/K50R: GST-fused one-domain SpG-β1 mutant, amino acid SEQ ID NO: 45 (TTYKLILNGKTLTGETTTIAVDTATAEKVLKQFANDNGVDGEWTYDNATRTFTVTE; also: GST-fused)” showed a KA [3] of 2.63e+06 M⁻¹, a koff [4] of 0.0046 s⁻¹ and a kon [4] of 120000 s/M. The “KA Vs. Wild” value [5] was 7.0.
Work on “K13T/E19I/F30L/Y33F: GST-fused one-domain SpG-β1 mutant, amino acid SEQ ID NO: 47 (TTYKLILNGKTLTGETTTIAVDAATAEKVLKQFANDNGVDGEWTYDDATKTFTVTE; also: GST-fused)” yielded a KA [3] of 1.59e+06 M⁻¹, a koff [4] of 0.0067 s⁻¹ and a kon [4] of 106000 s/M. The “KA Vs. Wild” value [5] was 4.3.
“K13T/E19I/V21N/K28I/F30L: GST-fused one-domain SpG-β1 mutant, amino acid SEQ ID NO: 37 (TTYKLILNGKTLTGETTTIANDAATAEIVLKQYANDNGVDGEWTYDDATKTFTVTE; also: GST-fused)” gave a KA [3] of 3.01e+06 M⁻¹, a koff [4] of 0.0071 s⁻¹ and a kon [4] of 214000 s/M. For the same substance, the “KA Vs. Wild” value [5] was 8.1.
For “K13T/E19I/A23T/T25M/F30L: GST-fused one-domain SpG-β1 mutant, amino acid SEQ ID NO: 49 (TTYKLILNGKTLTGETTTIAVDTAMAEKVLKQYANDNGVDGEWTYDDATKTFTVTE; also: GST-fused)”, the KA [3] was 1.12e+06 M⁻¹, the koff [4] was 0.0091 s⁻¹ and the kon [4] was 102000 s/M. For the same substance, the “KA Vs. Wild” value [5] was 3.0.
“K13T/E19I/F30L/Y33F/V39I/D47H: GST-fused one-domain SpG-β1 mutant, amino acid SEQ ID NO: 23 (TTYKLILNGKTLTGETTTIAVDAATAEKVLKQFANDNGIDGEWTYDHATKTFTVTE; also: GST-fused)” was tested, and the KA [3] was 2.06e+06 M⁻¹, the koff [4] was 0.0039 s⁻¹ and the kon [4] was 79400 s/M. For the same substance, the “KA Vs. Wild” value [5] was 5.5.
In the case of “K13T/V21A/F30L/Y33F/D40E: GST-fused one-domain SpG-β1 mutant, amino acid SEQ ID NO: 51 (TTYKLILNGKTLTGETTTEAADAATAEKVLKQFANDNGVEGEWTYDDATKTFTVTE; also: GST-fused)”, the KA [3] is reported as 1.78e+06 M⁻¹, the koff [4] is reported as 0.0078 s⁻¹ and the kon [4] is reported as 139000 s/M. For the same substance, the “KA Vs. Wild” value [5] was 4.8.
“K13T/E15T/E19I/T25M/E27G/F30L/N35Y: GST-fused one-domain SpG-β1 mutant, amino acid SEQ ID NO: 63 (TTYKLILNGKTLTGTTTTIAVDAAMAGKVLKQYAYDNGVDGEWTYDDATKTFTVTE; also: GST-fused)” gave a KA [3] of 1.28e+06 M⁻¹, a koff [4] of 0.0063 s⁻¹ and a kon [4] of 80700 s/M. For the same substance, the “KA Vs. Wild” value [5] was 3.4.
With “K13T/E19I/A23D/V39L: GST-fused one-domain SpG-β1 mutant, amino acid SEQ ID NO: 31 (TTYKLILNGKTLTGETTTIAVDDATAEKVFKQYANDNGLDGEWTYDDATKTFTVTE; also: GST-fused)” the KA [3] was 1.36e+06 M⁻¹, the kon [4] was 84300 s/M and the “KA Vs. Wild” value [5] was 3.6.
For “K13T/E19I/D22E/A24T/F30L/Y33F/D47G: GST-fused one-domain SpG-β1 mutant, amino acid SEQ ID NO: 79 (TTYKLILNGKTLTGETTTIAVEATTAEKVLKQFANDNGVDGEWTYDGATKTFTVTE; also: GST-fused)”, the KA [3] was 1.32e+06 M⁻¹, the koff [4] was 0.0053 s⁻¹ and the kon [4] was 69500 s/M. The “KA Vs. Wild” value [5] was 3.5.
